In the NTF2 design screens of Basanta et al. (2020):

Assay: protease stability score; higher = more stable; yeast display proteolysis, trypsin and chymotrypsin;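 also: relative to predicted unfolded state with 0 unfolded-like and 1 meaning tenfold more protease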

Sequence	protease stability score
DESEKHAEEFLRLLEESLLTGNWKFISELLDPRARTDYNGRDLHGRETMERWVKDFVRHIRIDHINNKTIDVQGDKVIIIGEVDGTINGRRERLEVHIFFLKVNGRWYLESTEFR	1.27
DESEKIMEDATKEHVKSFETGDFHTLLRQLDPHVRNNVNGVELHGREDVIRVLRELMERFPNVRVHIERIEVIGDKVNIKVNWNFNGVIVDVNIIAAKINGRWVNREMEVR	0.966
DESEKLEELIHERLRHLIETGDEDKLAKMADPNVRNRVGDFVHHGRERSHELLKWIFDHLGIDHLHIKHSSVIDGVVHFEIELRINGRTIRLHDHWFFINGRLDEISIHWE	0.93
DESEKLVERLTEDFRKAFETGDEKRLYNLMDPNVRLDINGVEIIGRELISKDLAHDLRRFKNVKMEFRLREIRVIGNFAHIDGRDIINVDGVEKYHESNYIVHKIDGRWHIKEIIIH	1.52
DESEKMFKEIWRLLIESHRTGDEDSLERLADPHARMDFNGVEHHGRRELVRILSEHYKRVDHIHLIIRDMDVQGNKVTMRGELVLEFNGRRQTHDVTIILSKVDGVWYLHSIIVR	1.53
DESEKSAFRFFEEMTKVLSTGDEETFLKMLDPNTRLEVGDKERHGREDFIRLMRHLWEVLGADHVHIHVKDIKVVNGRADIDTDLIIYVNGKTIHRDTQIIVLKIDGRWVLTSMEVE	2.02
DESEKYLKDAVEILIRVIRTGDEHTMKELLDPNVRLHAENHESHGRELLEWWTRRIDHVNDSKIEDMRTVGDYVELDMRLHTVFNGQTIDIKTTFIIIKVNGKWQLRSVHIH	1.26
DESERDFRRALEIMHKVVETGNWEEAKRMFDPHVLLDVNGVLIHGREVIIKYVERIDHIRFHHDLKRIETQGDKIYADVHEDLDISINGKTIHIRTRVHIISQKYDGRWLNTEHKVE	0.548
DESERDMETFVRITMDELVTGNEESIEEMLDPNVRLEVNGRQFHGREDATRIISEWIKILGINHRRLEEIRFVDGRAEVIVEIRVGDKRSELILISLKVNGQWRMERFEIRNE	2.09
DESERIILHIANEFLHLYATGDEDRLRELADPHVRLDVDGQDVHGRELTQKWWKRFVEEIRIRDLHLKDYYIIGEKYHIEGHTRLHIGDKHVETEIRIHIVVVNGKIKSESFHLR	0.541
DESERMVLELARLFLEDLLTGNEDLMSHLADPHAKNDINGVDLHGMEVISKHLSELRLRVLDITEERVQGDKVRIKVEVVIQYGDKWRETEVDLELYIVNGRLKSQIWTIR	1.08
DESHEHIRFWAEIYIRIFETGDWDEMSRLLDPHYRLIQGDKHIVGRERALDHIDKEIKELRIHHIHIKDVKTQGDYVRIDGHVNYNVGDKILRFDFHIKLLVVDGKIKHSEERVR	1.28
DESHELWRRNLELILQSRHTGDEFLTKELFDPRMRSNVNGVELHGMEEMLKFVSEIRIHVEHFRLHRIETQGDKIHIRAHEVINIEIGDYHVRLDTWVEMHDVKYNGRWFNTEVHIR	0.979
DESHESLHKMLKVRYEALHTGDESMLNELLDPDARFNVDGRIHHGRERAVRYNERIPNLTTRDLKVHDWKVIGDKIHIDGRLEGHWNGKHHIINEEIIVQKINGKWLIEEVIVR	0.109
DESHQLMLELLEELFHLLLTGNEETILRLADPNTRLQINGQETHGRESARHYWQRFLEHWRLKDYRIRSLYSQGDKAIIHTEVVLHYNGRDFRVTTEIRLWVFDGKIHEIIIIIN	1.53
DESHRESKLANELLKLALHTGDEDLLRELLDPRMRLEIGDKEFIGRDIMVQAMHEFYRELGVKHTDLKIKRVEIQGNKVINEGILWFHVGDKEHWVSTEFQSVKVNGRWLLQVFSIK	1.35
DESKDDSRRAVNLVVRTIQTGDWDLLIELLDPNVKIEINGQDLHGRETLFKTWLDEMRKLGVDRVHVELKHIEVQGEKVIVHVDVSVNGRDIKTEIIIHKVDGKWFIKSLHFK	1.31
DESKEAAELFIKQVERSTKTGDERLFEEFIDPHMRLEIGEFDYHGREFLHITLRDLGMEIRTFIVKDIKVQGDKARIRVEEHIQVNGVEQRRQVKYVIDKFDGRWEIHSVHFD	0.392

Sequence	protease stability score
DESKESARSFEDLLQEVRRTGDERKLVNLIDPHVKININGKIFHGWEDLEREFHRIKNIRFHVERMRVVGDKIDVRGTLHVDGQTVDTEIDVYKIDGRWAIESLRIG	1.43
DESKEVSEDALRIMIELIKTGDEHLLQRYIDPDVRVDVNGRHTHGWHWVVRQIFEEIKRVDHMRIHLDSERVFNGRVHLDVTIHVHINGVEIDIKITLTFHKFDGRWLFHHIKHK	0.195
DESKRDVKMFHEIFLRAQSTGDEDELSHLADPNVRIHQGEFHNIGMEEFVKHIREMRVHVRDSHIERVEIQGDKLIVEVRLHMEIRYNGQRTERDVNLHLIIIKINGRWILHSIHIE	1.02
DESMTEAKQILETLNKSLNTGDERLDKELFDPRAKLEFDGREIHGRELILTWLSEWRIEIKDFRIEDIEFQGNKVKMHTRIDMTVDFNGRRIKIDTTMHHDVIKVNGRWLIQRQIIP	1.12
DESQEIAIEASKRLYNHLLTGDEDNLKRLLDPHVRIEIDGRDIHGMEEVTRLKREWRFDSIEIRVDSVRDVNGRLDVKGHMRYHVRIGDKSHDREVKMHLTAEKIDGRWHNKSIHFE	1.26
DESQHVAEKVYKHLLKYWVTGDEDSVSRLVDPHARLHFEGRDLHGRHLISQFRMEWRLDHVHVDDMQVQGDKMEVRGKLDTTIDGRRTNLNEHLRLEKIDGRWYIREIRIE	1.25
DESQRDAHHASELVELVEKTGDWKMFEKLLDPHVRLQVGDKEFHGRHEAMRWIRETLERLGIDHREVRIEHIEFIGDKMIIHGEIILRFNGVTITHEEEFIVKKINGKWRMHEIRVR	1.29
DESREIAHKFLEIWIDAFKTGDEDLNSELLDPNTRRDVGDFRIHGMELIVKIMSKELEKYKGITFRVKIRHSTWQGDKIHLIVDILIIIGDKEERIETHFILEKIDGRWITTHMQIR	1.34
DESRESLEEALKIYIHDIKTGDEKSLTELADPNARLNFNGRWHHGREMVTKWMSEMRLHDFKLHELDVQGDKVHIRGEIFFEIDGRVIRSEIHIVMIKINGRWLLHSMHVE	1.17
DESRKAMRIALEIIEHMWRTGDETLRHELADPNTRVRIGDKELHGREELIRLWKELGFKHIEEIDLESIFVQGDKIHIDTRVHGEINGRHEVMRVVLIIHKIDGKWLIHSESHR	1.49
DESRREVRHFIDLWIELVETGDEDTIRHLADPHVKIVIGEKEDWGMEVFFRDFRRLGVDHMEIIVHRVDVIGNKAHVDFELRVHVDGQEFRFRLRLIVHKINGRWILRTIEIH	1.68
DESTEHLHRFFDLLIEWIRTGDEESLNKNADPNTRVEAENHEEHGREKFSKHLSEIMTHMRSHFVLRHVSFVGDKAIFDVEVIIIVNGREIKVRTFIIVVKINGRWLLKSVHIE	1.6
DESTENLREFIRVLLHLWETGNEDEFLRMADPNALVYDEHEYDHGWKAWKKLLEQYDVVTSIIPRHIRLIGDKVDIHTNLYMLINGRTVEVHTELLVKKIDGQWRIKFFLIR	1.63
DESTEVLERIMKDFLDELRTGDWEKFMELADPNVRLHFNGVTNHGREEVTRYFREHLARFDHYEIENHRVTLVGDKLHLDVILRVHQGDKFREYKVEIRVVVYDGKIKEVHIIIR	2.44
DESTHNRKIAVEILEHDNKTGDEKSIFRLFDPHVKIEVDGRDYHGREFFEEFIRKLGWTNIELTIKDVRSIGEFAEMRMEVRYGDWHFHTKVDVKKYNGQWLNREVRIA	1.44
DESTKAAEDIFEIIREMLETGDEETTRRLFDPDAKIIIGDKEIHGRENIELFMRLWLKQFDHVHDMTIRRMEIQGDKVIMDTEIHGTINGQRRTIRTRWIVVKINGKWSIHEVYFT	2.02
DESTKEARKFKHEFDNDWKTGDEDSLLRLADPHVRTDVNGVENHGREDFVKLLMDIFREMRTEMRTRHVTVFNGRIEVHSTLHLHQGDKVIDLEVLIINRKVNGRWILESMEIK	0.603
DESTKNAQEVIKMIKEIVETGDWRRHHQLVDPNARLHVHINGKDEESHGREEFTRVLMELWKEFGAKHVRFEDFELQGEKIHFHVKINVDGKDVKLLIVALKINGRWLMESVYVEFH	1.19
